Target: T1, GluA2Qflip (Rattus norvegicus, UniProt P19491)
T1 construct: expressed in transfected cells; host or cells: HEK-293S
Assay: Whole-cell current recording, GluA2Qflip in HEK-293 cells
Type: cell-based
Excerpt: The original cDNAs in pBlueScript encoding rat GluA1, 2 and 3 AMPA receptors and GluK2 kainate receptor were kindly provided by Steve Heinemann. The GluA4 DNA plasmid was kindly provided by Peter Seeburg. The GluK1 plasmid was kindly provided by Geoffrey Swanson. The cDNAs of all three NMDA receptor subunits were gifts from John Woodward. All DNA plasmids were propagated using Escherichia coli host (DH5α) and purified using QIAGEN DNA purification kits.
All of the receptors were transiently expressed in HEK-293S cell. HEK-293S cells were maintained in Dulbecco's modified Eagle's medium (DMEM) supplemented with 10% fetal bovine serum and 1% penicillin in a 37° C., 5% CO2, humidified incubator. Receptors were transiently transfected by using calcium phosphate or lipofectamine 2000 (Invitrogen). The DNA plasmids encoding green fluorescent protein (GFP) and T-antigen (TAg) were cotransfected in HEK-293 S cells. GFP was used as a transfection marker for cell recording, and TAg was cotransfected to potentiate the receptor expression at the single-cell level^6. Transfected cells were allowed to grow for 48 hour before they were used for recording.
The procedure for whole-cell current recording to assay the inhibitory property of an RNA aptamer is known to those of skill in the art and has been previously described^7. […] The extracellular buffer composition is described above (see “Receptor Preparation”). For recording of the NMDA channels, the intracellualr solution contained (in mM) 140 CsCl, 1 MgCl2, 0.1 EGTA, and 10 HEPES (pH 7.2 adjusted by […]), while the extracellular solution contained (in mM) 135 NaCl, 5.4 KCl, 1.8 CaCl2, 10 glucose and 5 HEPES (pH 7.2 adjusted by NaOH). In the extracellular buffer, 2 μM of glycine was added (glycine was the co-agonist of NMDA receptor)^2. All reagents including aptamer were dissolved in the corresponding extracellular buffer and used. […] The whole-cell current was recorded using an Axopatch-200B amplifier at a cutoff frequency of 2-20 kHz by a built-in, eight-pole Bessel filter and digitized at 5-50 kHz sampling frequency using a Digidata 1322A from Axon Instruments (Molecular Devices, Sunnyvale, Calif.). The pClamp 8 software (Molecular Devices) was used for data acquisition. All whole-cell recordings were at −60 mV and 22° C.
To deliver AG56 to a HEK-293 cell, a “Ψ”-shaped flow device was used. […] In all experiments reported in this study, a 6-second preincubation flow protocol was used for full aptamer preincubation. […] The corrected current amplitude was used for data analysis.
Determination of KI,app by the ratio of the current amplitude in the absence and presence of inhibitor or A/A(I)—see FIG. 5 in the text. Equ. 10a and 10b were derived based on one inhibitor binding to the receptor. KI, app is the apparent inhibition constant for the inhibitor; other terms have been defined previously.
Under this condition, the inhibition constant for the closed-channel conformation was determined from the ratio of the amplitude according to equ. 10a and 10b. Likewise, at a saturating ligand concentration (i.e., L>>K1), the majority of the receptors were in the open-channel state. Consequently, the inhibition constant associated with the open-channel conformation was measured. The basis of using the two ligand concentrations that corresponded to ˜4% and ˜96% fraction of the open-channel receptor form^7 to determine the corresponding inhibition constant was a putative difference in inhibition constant between the closed-channel and the open-channel conformation. At those low and high ligand concentrations^7, the apparent inhibition constants obtained were considered pertinent to the closed-channel and the open-channel conformations, respectively. Examples of using the current amplitude to determine the inhibition constant for an inhibitor include our previous study of two 2,3-benzodiazepine derivatives with the GluA2Qflip AMPA receptor^15.

T1 sequence (P19491 22-883 isoform P19491-2): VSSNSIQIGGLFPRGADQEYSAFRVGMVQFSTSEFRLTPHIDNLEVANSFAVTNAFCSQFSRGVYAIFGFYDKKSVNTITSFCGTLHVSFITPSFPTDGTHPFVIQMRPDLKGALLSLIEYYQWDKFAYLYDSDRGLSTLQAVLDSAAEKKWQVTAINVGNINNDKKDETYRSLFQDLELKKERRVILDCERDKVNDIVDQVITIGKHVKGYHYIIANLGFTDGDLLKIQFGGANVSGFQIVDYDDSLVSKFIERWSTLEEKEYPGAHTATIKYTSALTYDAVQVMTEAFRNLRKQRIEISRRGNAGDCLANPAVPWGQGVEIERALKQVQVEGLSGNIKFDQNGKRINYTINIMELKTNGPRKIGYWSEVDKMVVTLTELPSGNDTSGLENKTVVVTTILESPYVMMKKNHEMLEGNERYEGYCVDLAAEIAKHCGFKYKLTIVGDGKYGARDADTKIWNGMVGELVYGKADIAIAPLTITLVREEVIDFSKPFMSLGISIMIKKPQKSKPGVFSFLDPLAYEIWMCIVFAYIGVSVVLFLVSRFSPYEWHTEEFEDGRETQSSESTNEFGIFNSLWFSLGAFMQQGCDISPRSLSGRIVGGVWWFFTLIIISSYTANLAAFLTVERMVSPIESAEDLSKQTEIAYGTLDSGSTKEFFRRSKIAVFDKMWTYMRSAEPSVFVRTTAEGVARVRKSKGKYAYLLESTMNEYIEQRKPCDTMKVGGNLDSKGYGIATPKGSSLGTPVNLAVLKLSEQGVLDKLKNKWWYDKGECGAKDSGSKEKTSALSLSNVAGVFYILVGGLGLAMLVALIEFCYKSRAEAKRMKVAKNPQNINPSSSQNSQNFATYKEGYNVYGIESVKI

48 nt RNA: truncated AG1407 version with base-paired stem in first stem-loop region truncated (GGAGAAUCAACUCAUCUAGAGAUUGUGAAGCGUAGGCUCGAUUUGUCC; listed as RNA, chemistry not given here)
inhibitory function of shorter versions of AG1407, based on A/A(I) (GluA2Qflip): total loss of inhibitory function

45 nt RNA: truncated AG1407 version with the bulge at the U50 position removed (GGUUCAACUGCCAUCUAGGCAGAUUGUGAAGCGUAGGCUCGAGCC; listed as RNA, chemistry not given here)
inhibitory function of shorter versions of AG1407, based on A/A(I) (GluA2Qflip): total loss of inhibitory function

46 nt RNA: truncated AG1407 version with three-way junction shortened by deleting UUGUGA sequence (GGAGAAUCAACUGCCAUCUAGGCAGAAGCGUAGGCUCGAUUUGUCC; listed as RNA, chemistry not given here)
inhibitory function of shorter versions of AG1407, based on A/A(I) (GluA2Qflip): total loss of inhibitory function

B1: AG1407: full length 100-nt RNA aptamer, most enriched SELEX sequence against GluA2Qflip (nucleic acid)
chain: GGGAGAAUUCAACUGCCAUCUAGGCAGAUUGUGAAGCGUAGGCUCGAGUUUGUCCCGCGAGCCAAAGAUUCCAGAAGUACUACAAGCUUCUGGACUCGGU
modifications: RNA, backbone not given here
A/A(I) value (0.5 μM AG1407, 0.5 mM glutamate): significantly larger than 1.0
A/A(I) value (0.5 μM AG1407, 3 mM glutamate): significantly larger than 1.0
A/A(I), ratio of current amplitudes in absence and presence of aptamer (500 nM aptamer, 3 mM glutamate): one of the most potent inhibitors
inhibition of the open-channel conformation (GluA2Qflip, high glutamate concentration): inhibited the open-channel

From patent US8748407B2 (The Research Foundation for the State University of New York, priority 2010, dated 2014)
